Measured values from US20260258124A1 (CIMEIO THERAPEUTICS, published 2026).

Legend:
[1] = target: T1, CD117 on wild-type cells (TF-1 cells, HSPCs, HSCs) (human, UniProt P10721 26-976); assay: cell-based or functional assay
[2] = target: T1, CD117 on wild-type cells (TF-1 cells, …); assay: cell-based or functional assay; remark: listed apart in the source
[3] = target: T2, human recombinant CD117 (c-Kit) from Sino Biological (Catalog No. 11996-H08H) (human, UniProt P10721 26-524); assay: BLI Octet, set-up as in Example 2
T2 construct: also called soluble antigen
Experimental: (§1) In the main experiment kinetic assays were performed by first capturing IgG using anti-human Fc biosensors. The mAb capture biosensors were then submerged in wells containing different concentrations of antigen (association stage) followed by a dissociation step in running buffer. To allow for double reference correction, IgG-captured sensors were dipped into wells containing only buffer and blank sensors were also dipped into wells containing the antigen. This referencing provided a means of compensating for both the natural dissociation of the capture IgG and non-specific binding of the antigen to the sensor surface. Steps were performed at 25° C. at a constant shaking of 1000 rpm. New sensors were used for each sample. Dissociation rate constants (Kd) were calculated using the ForteBio Data Analysis software. All consumables used were those recommended by ForteBio.
(§2) All samples were diluted in freshly prepared running buffer. Antibody variants were immobilized onto the surface of a series of biosensors using the capture methods described. Antigen was passed over the surface to generate a binding response. Binding data for the IgG:antigen interactions were collected at 25° C. on the biosensors. A dilution series of the antigen was used in the association step, in order to fit results globally and get the best values for ka, kd, and KD. The response data for the binding of antigen to the surface immobilized IgG were fitted to a 1:1 binding model. HC0 LC0 refers to murine SR-1.

[4] = target: T2, human recombinant CD117 (c-Kit) from …; assay: BLI Octet, IgG on anti-human Fc sensor, soluble CD117, 1:1 fit
Experimental: IgG antibodies were immobilized on biosensors using suitable capture surfaces and binding of soluble antigen to immobilized antibodies was monitored by BLI (Octet). The resulting sensorgrams were analyzed using the supplied software (Fortebio). As antigen human recombinant CD117 (c-Kit) from Sino Biological was used (Catalog No. 11996-H08H, Lot #LC14SE0812). As a pre-experiment a series of experiments was performed to optimize assay parameters. The following parameters were selected:
as §1, §2

T1 sequence (P10721 26-976 limits assumed): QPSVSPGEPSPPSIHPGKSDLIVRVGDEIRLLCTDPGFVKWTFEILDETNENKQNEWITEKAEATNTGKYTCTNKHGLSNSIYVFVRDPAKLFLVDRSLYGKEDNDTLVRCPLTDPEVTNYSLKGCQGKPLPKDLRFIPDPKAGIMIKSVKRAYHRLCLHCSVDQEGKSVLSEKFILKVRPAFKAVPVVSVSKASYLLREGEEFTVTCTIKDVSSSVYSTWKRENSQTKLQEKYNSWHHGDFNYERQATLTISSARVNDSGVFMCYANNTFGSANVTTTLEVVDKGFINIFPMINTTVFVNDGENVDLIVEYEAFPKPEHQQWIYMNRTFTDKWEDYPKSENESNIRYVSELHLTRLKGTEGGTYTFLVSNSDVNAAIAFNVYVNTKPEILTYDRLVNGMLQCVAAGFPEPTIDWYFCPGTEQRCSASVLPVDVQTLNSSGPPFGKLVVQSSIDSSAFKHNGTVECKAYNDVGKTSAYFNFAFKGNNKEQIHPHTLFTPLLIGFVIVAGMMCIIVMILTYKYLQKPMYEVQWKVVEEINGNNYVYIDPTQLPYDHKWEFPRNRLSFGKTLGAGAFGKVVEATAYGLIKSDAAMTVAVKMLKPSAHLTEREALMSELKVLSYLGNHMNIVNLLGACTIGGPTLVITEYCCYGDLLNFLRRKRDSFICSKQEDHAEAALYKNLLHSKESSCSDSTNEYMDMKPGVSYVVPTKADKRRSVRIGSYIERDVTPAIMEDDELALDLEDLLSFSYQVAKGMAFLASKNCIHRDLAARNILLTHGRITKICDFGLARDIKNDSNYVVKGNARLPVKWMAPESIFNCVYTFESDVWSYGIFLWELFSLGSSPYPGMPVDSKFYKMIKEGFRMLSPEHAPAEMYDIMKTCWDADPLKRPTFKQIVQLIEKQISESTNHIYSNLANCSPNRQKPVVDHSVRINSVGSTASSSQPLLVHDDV
T2 sequence (P10721 26-524 limits assumed): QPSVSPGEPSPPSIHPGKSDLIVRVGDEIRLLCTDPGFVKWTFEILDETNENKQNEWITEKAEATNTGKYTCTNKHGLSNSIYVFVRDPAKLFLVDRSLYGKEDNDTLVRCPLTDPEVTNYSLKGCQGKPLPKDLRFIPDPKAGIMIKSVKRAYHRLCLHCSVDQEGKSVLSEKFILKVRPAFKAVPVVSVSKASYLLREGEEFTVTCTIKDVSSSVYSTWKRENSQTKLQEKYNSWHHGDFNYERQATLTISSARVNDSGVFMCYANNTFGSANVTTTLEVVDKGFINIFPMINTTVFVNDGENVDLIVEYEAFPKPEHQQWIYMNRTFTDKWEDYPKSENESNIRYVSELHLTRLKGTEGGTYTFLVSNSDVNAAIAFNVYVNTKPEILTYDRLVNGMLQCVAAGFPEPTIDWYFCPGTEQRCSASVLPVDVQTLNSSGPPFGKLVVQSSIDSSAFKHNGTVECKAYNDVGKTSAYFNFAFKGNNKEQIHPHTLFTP

Row | Binder | IC50, inhibition of SCF-dependent proliferation of TF-1 cells (CellTiter-Glo), Average [1] | IC50, inhibition of SCF-dependent proliferation of TF-1 cells (CellTiter-Glo), Experiment #1 [1] | IC50, inhibition of SCF-dependent proliferation of TF-1 cells (CellTiter-Glo), Experiment #2 [1] | IC50, inhibition of SCF-dependent proliferation of CD34-positive HSPCs (CellTiter-Glo) [2] | Kd [3] | Kd [4] | koff [4] | kon [4]
1 | FSI-174 (antibody, human IgG1, V domains shown) VH: QVQLVQSGAEVKKPGASVKVSCKASGYTFTSYNMHWVRQAPGQGLEWMGVIYSGNGDTSYAQKFQGRVTITADKSTSTAYMELSSLRSEDTAVYYCARERDTRFGNWGQGTLVTVSS VL: DIVMTQSPLSLPVTPGEPASISCRASESVDIYGQSFMHWYLQKPGQSPQLLIYLASNLESGVPDRFSGSGSGTDFTLKISRVEAEDVGVYYCQQNNEDPYTFGGGTKVEIK | 0.0473 µg/mL | 0.0387 µg/mL | 0.056 µg/mL | 0.0253 µg/mL |  |  |  | 
2 | AMG191 (antibody, human IgG1, V domains shown) VH: QVQLVQSGAEVKKPGASVKVSCKASGYTFTSYNMHWVRQAPGQGLEWMGVIYSGNGDTSYNQKFKGRVTITADKSTSTAYMELSSLRSEDTAVYYCARERDTRFGNWGQGTLVTVSS VL: DIVMTQSPDSLAVSLGERATINCRASESVDIYGNSFMHWYQQKPGQPPKLLIYLASNLESGVPDRFSGSGSGTDFTLTISSLQAEDVAVYYCQQNNEDPYTFGGGTKVEIKR | 0.208 µg/mL | 0.093 µg/mL | 0.323 µg/mL | 0.0954 µg/mL |  |  |  | 
3 | Dufour (antibody, V domains shown, IgG; also called VH1/VL1; HC1 LC1) VH: QVQLVQSGAEVKKPGASVKVSCKASGYTFTSYNMHWVRQAPGQGLEWMGVIYSGNGDTSYNQKFKGRVTMTTDTSTSTAYMELRSLTSDDTAVYYCARERDTRFGNWGQGTLVTVSA VL: EIVLTQSPSSLSASVGDRVTITCRASESVDIYGNSFMHWYQQKPGKAPKLLIYLASNLESGVPSRFSGSGSGTDFTLTISSLQPEDFATYYCQQNNEDPYTFGQGTKLEIK | 0.22 µg/mL | 0.12 µg/mL | 0.321 µg/mL | 0.0949 µg/mL | 0.4 nM | 0.79 nM | 0.000397 s⁻¹ | 503000 M⁻¹ s⁻¹
4 | Piz Zupo (antibody, V domains shown, IgG; also called VH1/VL1.25) VH: QVQLVQSGAEVKKPGASVKVSCKASGYTFTSYNMHWVRQAPGQGLEWMGVIYSGNGDTSYNQKFKGRVTMTTDTSTSTAYMELRSLTSDDTAVYYCARERDTRFGNWGQGTLVTVSA VL: EIVLTQSPSSLSASVGDRVTITCRASESVDIYGQSFMHWYQQKPGKAPKLLIYLASNLESGVPSRFSGSGSGTDFTLTISSLQPEDFATYYCQQNKEEPYTFGQGTKLEIKR | > 0.5 µg/mL | > 0.5 µg/mL | > 0.5 µg/mL | 0.114 µg/mL | 1.1 nM |  |  | 
5 | Matterhorn (antibody, V domains shown, IgG; also called VH1/VL1.4; VH1/LC1.4) VH: QVQLVQSGAEVKKPGASVKVSCKASGYTFTSYNMHWVRQAPGQGLEWMGVIYSGNGDTSYNQKFKGRVTMTTDTSTSTAYMELRSLTSDDTAVYYCARERDTRFGNWGQGTLVTVSA VL: EIVLTQSPSSLSASVGDRVTITCRASESVDIYGSSFMHWYQQKPGKAPKLLIYLASNLESGVPSRFSGSGSGTDFTLTISSLQPEDFATYYCQQNNEDPYTFGQGTKLEIKR | 0.116 µg/mL | 0.0648 µg/mL | 0.168 µg/mL | 0.0716 µg/mL | 0.5 nM |  |  | 
6 | Weissmies (antibody, V domains shown, IgG; also called VH1.2/VL1.16) VH: QVQLVQSGAEVKKPGASVKVSCKASGYTFTSYNMHWVRQAPGQGLEWMGVIYSGSGDTSYNQKFKGRVTMTTDTSTSTAYMELRSLTSDDTAVYYCARERDTRFGNWGQGTLVTVSA VL: EIVLTQSPSSLSASVGDRVTITCRASESVDIYGYSFMHWYQQKPGKAPKLLIYLASNLESGVPSRFSGSGSGTDFTLTISSLQPEDFATYYCQQNNEEPYTFGQGTKLEIKR |  |  |  |  | 0.37 nM |  |  | 
7 | Schreckhorn (antibody, V domains shown, IgG; also called VH1/VL1.16) VH: QVQLVQSGAEVKKPGASVKVSCKASGYTFTSYNMHWVRQAPGQGLEWMGVIYSGNGDTSYNQKFKGRVTMTTDTSTSTAYMELRSLTSDDTAVYYCARERDTRFGNWGQGTLVTVSA VL: EIVLTQSPSSLSASVGDRVTITCRASESVDIYGYSFMHWYQQKPGKAPKLLIYLASNLESGVPSRFSGSGSGTDFTLTISSLQPEDFATYYCQQNNEEPYTFGQGTKLEIKR |  |  |  |  | 0.13 nM |  |  | 
8 | Täschhorn (antibody, V domains shown, IgG; also called VH1/VL1.3) VH: QVQLVQSGAEVKKPGASVKVSCKASGYTFTSYNMHWVRQAPGQGLEWMGVIYSGNGDTSYNQKFKGRVTMTTDTSTSTAYMELRSLTSDDTAVYYCARERDTRFGNWGQGTLVTVSA VL: EIVLTQSPSSLSASVGDRVTITCRASESVDIYGRSFMHWYQQKPGKAPKLLIYLASNLESGVPSRFSGSGSGTDFTLTISSLQPEDFATYYCQQNNEDPYTFGQGTKLEIKR |  |  |  |  | 3.5 nM |  |  | 
9 | Parrot (antibody, V domains shown, IgG; also called VH1/VL1.5) VH: QVQLVQSGAEVKKPGASVKVSCKASGYTFTSYNMHWVRQAPGQGLEWMGVIYSGNGDTSYNQKFKGRVTMTTDTSTSTAYMELRSLTSDDTAVYYCARERDTRFGNWGQGTLVTVSA VL: EIVLTQSPSSLSASVGDRVTITCRASESVDIYGKSFMHWYQQKPGKAPKLLIYLASNLESGVPSRFSGSGSGTDFTLTISSLQPEDFATYYCQQNNEDPYTFGQGTKLEIKR |  |  |  |  | 3.7 nM |  |  | 
10 | Weisshorn (antibody, V domains shown, IgG; also called VH1/VL1.2; VH1/LC1.2) VH: QVQLVQSGAEVKKPGASVKVSCKASGYTFTSYNMHWVRQAPGQGLEWMGVIYSGNGDTSYNQKFKGRVTMTTDTSTSTAYMELRSLTSDDTAVYYCARERDTRFGNWGQGTLVTVSA VL: EIVLTQSPSSLSASVGDRVTITCRASESVDIYGQSFMHWYQQKPGKAPKLLIYLASNLESGVPSRFSGSGSGTDFTLTISSLQPEDFATYYCQQNNEDPYTFGQGTKLEIKR |  |  |  |  | 0.3 nM |  |  | 
11 | Bellavista (antibody, V domains shown, IgG; also called VH1.4/VL1.29) VH: QVQLVQSGAEVKKPGASVKVSCKASGYTFTSYNMHWVRQAPGQGLEWMGVIYSGQGDTSYNQKFKGRVTMTTDTSTSTAYMELRSLTSDDTAVYYCARERDTRFGNWGQGTLVTVSA VL: EIVLTQSPSSLSASVGDRVTITCRASESVDIYGESFMHWYQQKPGKAPKLLIYLASNLESGVPSRFSGSGSGTDFTLTISSLQPEDFATYYCQQNREEPYTFGQGTKLEIKR | 0.157 µg/mL | 0.103 µg/mL | 0.212 µg/mL | 0.096 µg/mL | 1.3 nM |  |  | 
12 | Zinalrithorn (antibody, V domains shown, IgG; also called VH1/VL1.12) VH: QVQLVQSGAEVKKPGASVKVSCKASGYTFTSYNMHWVRQAPGQGLEWMGVIYSGNGDTSYNQKFKGRVTMTTDTSTSTAYMELRSLTSDDTAVYYCARERDTRFGNWGQGTLVTVSA VL: EIVLTQSPSSLSASVGDRVTITCRASESVDIYGNSFMHWYQQKPGKAPKLLIYLASNLESGVPSRFSGSGSGTDFTLTISSLQPEDFATYYCQQHNEDPYTFGQGTKLEIKR |  |  |  |  | 1.3 nM |  |  | 
13 | Eiger (antibody, V domains shown, IgG; also called VH1/VL1.26) VH: QVQLVQSGAEVKKPGASVKVSCKASGYTFTSYNMHWVRQAPGQGLEWMGVIYSGNGDTSYNQKFKGRVTMTTDTSTSTAYMELRSLTSDDTAVYYCARERDTRFGNWGQGTLVTVSA VL: EIVLTQSPSSLSASVGDRVTITCRASESVDIYGSSFMHWYQQKPGKAPKLLIYLASNLESGVPSRFSGSGSGTDFTLTISSLQPEDFATYYCQQNKEEPYTFGQGTKLEIKR | > 0.5 µg/mL | > 0.5 µg/mL | > 0.5 µg/mL | 0.594 µg/mL | 1.6 nM |  |  | 
